We go through 9 molecules from patent publication US20110046355A1 (F STAR BIOTECHNOLOGISCHE FORSCHUNGS UND ENTWICKLUNGSGES M B …, published 2011).

Assay [1] has as its target T1, Human soluble Her-2 (Bender Med Systems, Austria) (human, UniProt P04626 23-652, biotinylated (sulfo-LC-LC-biotin) when used for yeast FACS staining; unlabelled in ELISA and SPR).
T1 construct: extracellular domain; given only as 'human soluble Her-2'; also called recombinant antigen Her2 (Bendermedsystems); Her2-biotin
Nature of the assay: ELISA, human soluble Her-2 coated at 2 ug/ml, Fcab titrated, anti-Fc CH2-HRP detection. Here is the method:
Human soluble Her-2 (Bender Med Systems, Austria) was coated to plastic at 2 μg/ml. After washing and blocking unspecific binding sites, increasing concentrations of Fcabs were added. To detect Her-2 bound Fcabs, anti-Fc CH2 domain specific monoclonal antibodies which were conjugated to horse radish peroxidase (Serotec) were added.

Assay [2] has as its target T1, Human soluble Her-2 (Bender Med …). Description: SPR, Biacore CM5 chip coated with human soluble Her-2, Fcab as analyte, BiaEval fit. On the procedure: (§1) Antigen binding was also determined by SPR. Biacore CM5 chips were coated with different amounts of human soluble Her-2 followed by addition of increasing concentrations of Fcabs. The affinity (KD) of the Fcabs was calculated from the resulting binding curves after fitting using the software BiaEval. […] Antigen binding was also assessed by FACS using the Her-2 over-expressing human breast cancer cell lines SKBR3 and Calu-3. 1×10⁵ cells were incubated with increasing concentrations of Fcabs for 60 minutes on ice. Then, unbound antibodies were removed by centrifugation and washing. Cell bound Fcabs were detected by incubation with anti-human Fc specific antibodies conjugated to phycoerythrin (Sigma) for 60 minutes on ice. After washing the cells, the intensity of fluorescence on the cell surface was measured in a FACS Calibur instrument (Beckton Dickinson).
A general note: SPR reads the build-up and loss of mass on a sensor chip optically.

The next assay addresses T2, wild type Fcab (human, UniProt P0DOX5 218-449 = IgG part, limits assumed).
T2 construct: also called Fcab wt; wtFcab
Description: SPR, Fcab (10 ug/ml) captured on Protein A chip (3000 RU), human soluble CD64 at 5 ug/ml as analyte. Here is the method: Association with the neonatal Fc receptor (FcRn) was measured by adding 10 μg/ml Fcab to a Biacore CM5 chip coupled to 5000 response units (RU) of recombinant human FcRn at pH=6.0. The dissociation of Fcab from FcRn was tested at pH=7.4. […] Finally, human soluble CD64 at 5 μg/ml was added.

In assay [3] the target is T3, Fcab wt (non-randomized Fc fragment) expressed on yeast (human, UniProt P0DOX5 218-449 = IgG part).
T3 construct: also called Fcab-wt expressing cells; not shown: N-terminal Aga2 display fusion (and CH1 in vector pYD1dXFc)
Description: FACS of yeast-displayed Fcab wt, CD64 staining.

For assay [4], the target named is T4, Her-2 on Her-2 over-expressing human breast cancer cell lines SKBR3 and Calu-3 (human, UniProt P04626 23-1255).
T4 construct: whole, on cells; also called SKBR3 cells; Calu-3 cells
Nature of the assay: FACS on Her-2 over-expressing SKBR3 cells, anti-human Fc-PE detection. Here is the method: as §1

The target in assay [5] is T1, Human soluble Her-2 (Bender Med …). Nature of the assay: assay not stated; told in the yeast display FACS selection and affinity maturation section (biotinylated Her2).
In assay [6] the target is T4, Her-2 on Her-2 over-expressing human …. Nature of the assay: cell-based or functional assay.

Substitutions are numbered along the chain they refer to.

By EC50 is commonly meant the concentration at which the effect is half-maximal. The term Kd denotes a measure of binding affinity in units of concentration. Higher therefore signals lower affinity.

B1: H561G3M1G4 (designed binder)
chain: EPKSCDKTHTCPPCPAPELLGGPSVFLFPPKPKDTLMISRTPEVTCVVVDVSHEDPEVKFNWYVDGVEVHNAKTKPREEQYNSTYRVVSVLTVLHQDWLNGKEYKCKVSNKALPAPIEKTISKAKGQPREPQVYTLPPSRDEFFTYWVSLTCLVKGFYPSDIAVEWESNGQPENNYKTTPPVLDSDGSFFLYSKLTVDRRRWTAGNVFSCSVMHEALHNHYTQKSLSLSPGK
B1 returned an EC50 in assay [1] of 263 nM. Besides, in assay [2], the Kd turned out to be 7.5 nM.

B2: human soluble CD64 (receptor, UniProt P12314 16-292, looked up)
chain: QVDTTKAVITLQPPWVSVFQEETVTLHCEVLHLPGSSSTQWFLNGTATQTSTPSYRITSASVNDSGEYRCQRGLSGRSDPIQLEIHRGWLLLQVSSRVFTEGEPLALRCHAWKDKLVYNVLYYRNGKAFKFFHWNSNLTILKTNISHNGTYHCSGMGKHRYTSAGISVTVKELFPAPVLNASVTSPLLEGNLVTLSCETKLLLQRPGLQLYFSFYMGSKTLRGRNTSSEYQILTARREDSGLYWCEAATEDGNVLKRSPELELQVLGLQLPTPVWFH
notes: extracellular domain; Printed as 'human soluble CD64'; also called human CD64 (R&D Systems)
Turning to B2, the binding result (with wild type Fcab; in assay [3]) was “binds” each time.

B3: y-Her.C2.P4.2-9 (designed binder)
chain: EPKSCDKTHTCPPCPAPELLGGPSVFLFPPKPKDTLMISRTPEVTCVVVDVSHEDPEVKFNWYVDGVEVHNAKTKPREEQYNSTYRVVSVLTVLHQDWLNGKEYKCKVSNKALPAPIEKTISKAKGQPREPQVYTLPPSRDEYLHGDVSLTCLVKGFYPSDIAVEWESNGQPENNYKTTPPVLDSDGSFFLYSKLTVARYSPRMLRWAHGNVFSCSVMHEALHNHYTQKSLSLSPGK
B3: in assay [1], the EC50 was found to be 4.3 nM.

B4: EF3-17 (designed binder)
chain: B3 chain with Y200H, P202R, R203T, L205W, A208G
Consider B4, for which the EC50 in assay [1] amounted to 4.7 nM; in assay [4] it was 1.3 nM.

B5: y-Her.C2.P4.2-4 (designed binder)
chain: B3 chain with L144S, H145D
In assay [1], B5 returned an EC50 of 370 nM.

B6: y-Her.C2.P4.2-19 (designed binder)
chain: B3 chain with L144R, H145S, D147E
The molecule B6 returned an EC50 in assay [1] of 93 nM.

B7: H10-03-6 (designed binder)
chain: B3 chain with H145Y, A198P, Y200H, P202A, L205W
notes: also called H10-03-6 clone
As to B7, the results for the EC50 in assay [1], in assay [5] and in assay [4] were 4.8 nM, 18.9 nM and 10.3 nM, respectively. In assay [6], the “ADCC: SKBR3 cell killing by NK cells (7-AAD/CFSE double positive cells), EC50” value is 1.1 nM. This molecule also registered a Kd in assay [2] of 8.6 nM.

B8: ABEFs0101 (designed binder)
chain: B3 chain with H145S, G146A, R203S, L205W, A208G
notes: If read literally (148-197) a Val would be doubled
Take B8: the EC50 in assay [1] came out at 16.1 nM; in assay [4], 5.2 nM. For the same molecule, the “ADCC: SKBR3 cell killing by NK cells (7-AAD/CFSE double positive cells), EC50” value in assay [6] was found to be 1 nM.

B9: y-Her.C2.P4.2-3 (designed binder)
chain: B3 chain with L144A, H145S, G146N, D147T
On to B9, for which the EC50 in assay [1] was 463 nM.
